Reference: the supplement of paper PMC7877785
± gives the uncertainty stated by the source.

Assay: self-splicing fitness, log relative to wild type (ln ratio); higher = more splicing; Tetrahymena group I intron in knt gene, E. coli kanamycin selection, DiMSum; sequences stand for … in CUCUCU…GGAGGGAAAAGUUAUCAGGCAUGCACCUGGUAGCUAGUCUUUAAACCAAUAGAUUGCAUCGGUUUAAAAGGCAAGACCGUCAAAUUGCGGGAAAGGGGUCAACAGCCGUUCAGUACCAAGUCUCAGGGGAAACUUUGAGAUGGCCUUGCAAAGGGUAUGGUAAUAAGCUGACGGACAUGGUCCUAACCACGCAGCCAAGUCCUAAGUCAACAGAUCUUCUGUUGAUAUGGAUGCAGUUCACAGACUAAAUGUCGGUCGGGGAAGAUGUAUUCUUCUCAUAAGAUAUAGUCGGACCUCUCCUUAAUGGGAGCUAGCGGAUGAAGUGAUGCAACACUGGAGCCGCUGGGAACUAAUUUGUAUGCGAAAGUAUAUUGAUUAGUUUUGGAGUACUCGUGGUCG
How it was run: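 A randomised library covering all eight P1ex-region intron nucleotides was built with the intron in the knt kanamycin-resistance gene on pET-22b(+) and held in E. coli BL21(DE3). Cells were grown overnight at 37°C or 30°C on LB agar, with or without 25 μg/mL kanamycin, plus 100 μg/mL carbenicillin, 50 μM IPTG and 0.2% rhamnose, and pooled colonies were amplicon-sequenced on an Illumina HiSeq 2500. DiMSum fitness is the error-weighted combination of wild-type-normalised replicate fold changes, kanamycin versus none.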

ACCUAGCAAUAUUACGGUGA
self-splicing fitness (ln) (30 °C): -1.86 ± 0.079
self-splicing fitness (ln) (37 °C): -0.814 ± 0.074

ACCUAGCAAUAUUACGUACA
self-splicing fitness (ln) (30 °C): -1.31 ± 0.14
self-splicing fitness (ln) (37 °C): -0.964 ± 0.17

ACCUAGCAAUAUUACGUAUC
self-splicing fitness (ln) (30 °C): -2.83 ± 0.083
self-splicing fitness (ln) (37 °C): -1.85 ± 0.1

ACCUAGCAAUAUUACGUCCA
self-splicing fitness (ln) (30 °C): -1.53 ± 0.098
self-splicing fitness (ln) (37 °C): -0.615 ± 0.094

ACCUAGCAAUAUUACGUCCC
self-splicing fitness (ln) (30 °C): -1.37 ± 0.26

ACCUAGCAAUAUUACGUCGA
self-splicing fitness (ln) (30 °C): -2.29 ± 0.093
self-splicing fitness (ln) (37 °C): -0.834 ± 0.091

ACCUAGCAAUAUUACGUGAC
self-splicing fitness (ln) (30 °C): -3.2 ± 0.12
self-splicing fitness (ln) (37 °C): -0.892 ± 0.11

ACCUAGCAAUAUUACGUGGC
self-splicing fitness (ln) (30 °C): -3.35 ± 0.21
self-splicing fitness (ln) (37 °C): -2.02 ± 0.21

ACCUAGCAAUAUUACGUUAG
self-splicing fitness (ln) (30 °C): -3.59 ± 0.14
self-splicing fitness (ln) (37 °C): -2.69 ± 0.19

ACCUAGCAAUAUUACGUUAU
self-splicing fitness (ln) (30 °C): -2.43 ± 0.11
self-splicing fitness (ln) (37 °C): -1.53 ± 0.11

ACGAAGCAAUAUUACGAACA
self-splicing fitness (ln) (30 °C): -1.62 ± 0.13
self-splicing fitness (ln) (37 °C): -0.229 ± 0.11

ACGAAGCAAUAUUACGAAGA
self-splicing fitness (ln) (30 °C): -3.07 ± 0.25
self-splicing fitness (ln) (37 °C): -3.2 ± 0.37

ACGAAGCAAUAUUACGAAUC
self-splicing fitness (ln) (30 °C): -3.29 ± 0.2
self-splicing fitness (ln) (37 °C): -2.9 ± 0.25

ACGAAGCAAUAUUACGACUA
self-splicing fitness (ln) (30 °C): -0.269 ± 0.083
self-splicing fitness (ln) (37 °C): -0.184 ± 0.081

ACGAAGCAAUAUUACGAGCA
self-splicing fitness (ln) (30 °C): -2.84 ± 0.14
self-splicing fitness (ln) (37 °C): -1.32 ± 0.12

ACGAAGCAAUAUUACGAUGG
self-splicing fitness (ln) (30 °C): -2.34 ± 0.13
self-splicing fitness (ln) (37 °C): -1.17 ± 0.12

ACGAAGCAAUAUUACGCAUU
self-splicing fitness (ln) (30 °C): -3.42 ± 0.12
self-splicing fitness (ln) (37 °C): -1.95 ± 0.096

ACGAAGCAAUAUUACGCCCG
self-splicing fitness (ln) (30 °C): -0.0902 ± 0.13
self-splicing fitness (ln) (37 °C): -0.0289 ± 0.14

ACGAAGCAAUAUUACGCGAG
self-splicing fitness (ln) (30 °C): -1.48 ± 0.12
self-splicing fitness (ln) (37 °C): -0.723 ± 0.11

ACGAAGCAAUAUUACGCGGC
self-splicing fitness (ln) (30 °C): -2.63 ± 0.35
self-splicing fitness (ln) (37 °C): -2.22 ± 0.24

ACGAAGCAAUAUUACGCGUC
self-splicing fitness (ln) (30 °C): -3.76 ± 0.21
self-splicing fitness (ln) (37 °C): -1.91 ± 0.19

ACGAAGCAAUAUUACGCUCU
self-splicing fitness (ln) (30 °C): -1.35 ± 0.094
self-splicing fitness (ln) (37 °C): -0.15 ± 0.1

ACGAAGCAAUAUUACGGACA
self-splicing fitness (ln) (30 °C): -0.643 ± 0.14
self-splicing fitness (ln) (37 °C): -0.915 ± 0.15

ACGAAGCAAUAUUACGGACU
self-splicing fitness (ln) (30 °C): 0.0455 ± 0.045
self-splicing fitness (ln) (37 °C): 0.53 ± 0.065

ACGAAGCAAUAUUACGGAUG
self-splicing fitness (ln) (30 °C): -2.82 ± 0.13
self-splicing fitness (ln) (37 °C): -1.44 ± 0.11

ACGAAGCAAUAUUACGGCAA
self-splicing fitness (ln) (30 °C): -1.04 ± 0.13
self-splicing fitness (ln) (37 °C): -0.678 ± 0.13

ACGAAGCAAUAUUACGGGAC
self-splicing fitness (ln) (30 °C): -4.36 ± 0.24
self-splicing fitness (ln) (37 °C): -2.68 ± 0.18

ACGAAGCAAUAUUACGGUGC
self-splicing fitness (ln) (30 °C): -4.82 ± 0.27
self-splicing fitness (ln) (37 °C): -3.17 ± 0.2

ACGAAGCAAUAUUACGGUUG
self-splicing fitness (ln) (30 °C): -2.29 ± 0.07
self-splicing fitness (ln) (37 °C): -1.31 ± 0.081

ACGAAGCAAUAUUACGUACA
self-splicing fitness (ln) (30 °C): -2.13 ± 0.13
self-splicing fitness (ln) (37 °C): -1.06 ± 0.12

ACGAAGCAAUAUUACGUCUC
self-splicing fitness (ln) (30 °C): -3.62 ± 0.12
self-splicing fitness (ln) (37 °C): -1.55 ± 0.087

ACGAAGCAAUAUUACGUGAG
self-splicing fitness (ln) (30 °C): -0.888 ± 0.056
self-splicing fitness (ln) (37 °C): -1.14 ± 0.087

ACGAAGCAAUAUUACGUGGC
self-splicing fitness (ln) (30 °C): -2.97 ± 0.11
self-splicing fitness (ln) (37 °C): -2.04 ± 0.14

ACGAAGCAAUAUUACGUUUU
self-splicing fitness (ln) (30 °C): -4.13 ± 0.16
self-splicing fitness (ln) (37 °C): -1.8 ± 0.11

ACGCAGCAAUAUUACGAAGA
self-splicing fitness (ln) (37 °C): -1.43 ± 0.26

ACGCAGCAAUAUUACGCCUA
self-splicing fitness (ln) (30 °C): -0.946 ± 0.088
self-splicing fitness (ln) (37 °C): 0.0129 ± 0.093

ACGCAGCAAUAUUACGCUCG
self-splicing fitness (ln) (30 °C): -2.56 ± 0.12
self-splicing fitness (ln) (37 °C): -1.67 ± 0.16

ACGCAGCAAUAUUACGGACA
self-splicing fitness (ln) (30 °C): -1.29 ± 0.13
self-splicing fitness (ln) (37 °C): -1.13 ± 0.14

ACGCAGCAAUAUUACGGAGA
self-splicing fitness (ln) (30 °C): -2.66 ± 0.3
self-splicing fitness (ln) (37 °C): -2.41 ± 0.2

ACGCAGCAAUAUUACGGCCU
self-splicing fitness (ln) (30 °C): 0.271 ± 0.063
self-splicing fitness (ln) (37 °C): 0.881 ± 0.091

ACGCAGCAAUAUUACGGCUG
self-splicing fitness (ln) (30 °C): -3.03 ± 0.16
self-splicing fitness (ln) (37 °C): -3.01 ± 0.22

ACGCAGCAAUAUUACGGUAC
self-splicing fitness (ln) (30 °C): -1.03 ± 0.18
self-splicing fitness (ln) (37 °C): -2.48 ± 0.45

ACGCAGCAAUAUUACGGUUC
self-splicing fitness (ln) (30 °C): -3.63 ± 0.22
self-splicing fitness (ln) (37 °C): -1.89 ± 0.15

ACGCAGCAAUAUUACGUACC
self-splicing fitness (ln) (30 °C): -1.46 ± 0.24
self-splicing fitness (ln) (37 °C): -0.295 ± 0.26

ACGCAGCAAUAUUACGUACG
self-splicing fitness (ln) (30 °C): -2.93 ± 0.15
self-splicing fitness (ln) (37 °C): -0.983 ± 0.13

ACGCAGCAAUAUUACGUCCU
self-splicing fitness (ln) (30 °C): -0.15 ± 0.058
self-splicing fitness (ln) (37 °C): 0.354 ± 0.07

ACGCAGCAAUAUUACGUCGG
self-splicing fitness (ln) (30 °C): -1.23 ± 0.067
self-splicing fitness (ln) (37 °C): -1.14 ± 0.1

ACGCAGCAAUAUUACGUCUU
self-splicing fitness (ln) (30 °C): -1.36 ± 0.065
self-splicing fitness (ln) (37 °C): -1.27 ± 0.083
